{"source": "patent US20210340207A1", "about": "(Merck Sharp & Dohme, published 2021)", "binders": {"B1": {"name": "Ald_S4pAMF(PEG1)/R37A/F41K (CON1) (ligand)", "chain": "PTS[pAMF]([DBCO‑triazole-mPEG 30 kDa])STKKTQLQLEHLLLDLQMILNGINNYKNPKLTAMLTKKFYMPKKATELKHLQCLEEELKPLEEVLNLAQSKNFHLRPRDLISNINVIVLELKGSETTFMCEYADETATIVEFLNRWITFSQSIISTLT", "modifications": "not fully specified (bridges)", "notes": "also called Des-A1_IL-2_S4pAMF(PEG1)/R37A/F41K/C124S"}}, "key": {"[1]": {"molecular_target": "T1, Human IL-2Rβ, His tag (Table 10) (human, UniProt P14784 27-239, limits assumed)", "T1 construct": "not shown: polyhistidine tag", "T1 sequence (looked up)": "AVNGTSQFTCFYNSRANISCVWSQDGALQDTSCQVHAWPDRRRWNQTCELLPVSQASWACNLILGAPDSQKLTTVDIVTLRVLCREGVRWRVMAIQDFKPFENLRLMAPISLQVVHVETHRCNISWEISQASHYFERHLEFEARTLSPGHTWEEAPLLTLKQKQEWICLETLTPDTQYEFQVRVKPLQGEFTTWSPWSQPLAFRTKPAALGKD", "experiment": "SPR (Biacore T200)", "method": "(§1) A Surface Plasmon Resonance (SPR) assay on a Biacore T200 (GE Healthcare) instrument was used to determine the monovalent affinities of pegylated aldesleukin variants against polyhistidine-tagged or Fc-tagged IL-2 Receptors. Biacore T200 Evaluation Software was used to fit each titration series to a 1:1 binding model or steady state affinity. The association (kₒₙ, M⁻¹ s⁻¹) and dissociation (koff, s⁻¹) rate constants were determined for each set of titrations and used to calculate the dissociation constant, KD=koff/kₒₙ, of each sample against each receptor. koff/kₒₙ values are not reported herein."}, "[2]": {"molecular_target": "T2, Cynomolgus/Rhesus IL-2Rβ, His tag (Table 10) (cynomolgus monkey / rhesus monkey, UniProt Q38J85 27-240)", "T2 sequence": "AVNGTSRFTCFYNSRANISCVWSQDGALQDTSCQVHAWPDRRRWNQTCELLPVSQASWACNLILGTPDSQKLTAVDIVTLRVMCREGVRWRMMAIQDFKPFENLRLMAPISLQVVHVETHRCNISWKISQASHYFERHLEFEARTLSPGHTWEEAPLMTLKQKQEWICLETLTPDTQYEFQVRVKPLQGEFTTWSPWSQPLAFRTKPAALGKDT", "experiment": "SPR (Biacore T200)", "method": "as §1"}, "[3]": {"molecular_target": "T3, human IL-2Rαβγc (on Kit225-STAT5 reporter cells, NK-92 cells, primary Treg cells) (human, UniProt P01589 22-272; P14784 27-551; P31785 23-369)", "T3 sequence (looked up) 1": "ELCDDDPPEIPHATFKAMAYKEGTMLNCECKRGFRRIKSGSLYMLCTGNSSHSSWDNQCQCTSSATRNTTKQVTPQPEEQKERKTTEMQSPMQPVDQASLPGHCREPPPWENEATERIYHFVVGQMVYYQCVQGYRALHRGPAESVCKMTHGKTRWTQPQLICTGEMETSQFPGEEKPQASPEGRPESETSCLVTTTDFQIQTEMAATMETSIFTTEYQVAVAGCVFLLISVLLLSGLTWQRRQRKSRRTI", "T3 sequence (looked up) 2": "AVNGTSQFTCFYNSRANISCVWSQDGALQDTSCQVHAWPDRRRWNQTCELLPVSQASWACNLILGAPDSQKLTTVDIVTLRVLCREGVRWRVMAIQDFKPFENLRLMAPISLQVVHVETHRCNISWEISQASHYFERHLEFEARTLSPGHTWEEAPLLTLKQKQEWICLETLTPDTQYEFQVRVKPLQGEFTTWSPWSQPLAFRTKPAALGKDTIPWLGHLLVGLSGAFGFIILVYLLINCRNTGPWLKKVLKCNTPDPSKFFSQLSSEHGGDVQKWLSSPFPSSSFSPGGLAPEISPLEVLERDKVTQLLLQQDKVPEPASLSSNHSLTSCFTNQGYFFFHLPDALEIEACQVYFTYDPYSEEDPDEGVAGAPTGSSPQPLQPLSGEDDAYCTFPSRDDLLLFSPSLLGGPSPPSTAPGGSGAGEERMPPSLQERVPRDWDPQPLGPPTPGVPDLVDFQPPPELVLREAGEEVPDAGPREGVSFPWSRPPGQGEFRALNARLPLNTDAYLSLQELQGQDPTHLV", "T3 sequence (looked up) 3": "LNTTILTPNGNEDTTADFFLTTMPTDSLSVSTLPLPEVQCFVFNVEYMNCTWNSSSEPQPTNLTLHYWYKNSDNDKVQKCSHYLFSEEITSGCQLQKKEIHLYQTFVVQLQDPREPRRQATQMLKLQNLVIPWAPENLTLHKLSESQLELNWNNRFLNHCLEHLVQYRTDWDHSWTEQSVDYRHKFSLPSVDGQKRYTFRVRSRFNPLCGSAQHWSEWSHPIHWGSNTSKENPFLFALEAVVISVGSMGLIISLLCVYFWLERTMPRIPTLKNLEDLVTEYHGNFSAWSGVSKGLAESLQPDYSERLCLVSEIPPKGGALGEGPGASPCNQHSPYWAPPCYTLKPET", "experiment": "cell-based or functional assay"}, "[4]": {"molecular_target": "T4, human IL-2Rβγc (on DERL-7 cells, U2OS IL2RB/IL2RG cells, CD25 knockout Kit225-STAT5 cells, primary CD8+ CTLs) (human, UniProt P14784 27-551; P31785 23-369)", "T4 sequence (looked up) 1": "T3 sequence (looked up) 2", "T4 sequence (looked up) 2": "T3 sequence (looked up) 3", "experiment": "cell-based or functional assay"}, "[5]": {"molecular_target": "T3, human IL-2Rαβγc (on Kit225-STAT5 …)", "experiment": "cell-based or functional assay", "remark": "listed apart in the source"}, "[6]": {"molecular_target": "T4, human IL-2Rβγc (on DERL-7 cells, U2OS …)", "experiment": "cell-based or functional assay", "remark": "listed apart in the source"}, "[7]": {"molecular_target": "T3, human IL-2Rαβγc (on Kit225-STAT5 …)", "experiment": "cell-based or functional assay", "remark": "listed apart in the source"}, "[8]": {"molecular_target": "T4, human IL-2Rβγc (on DERL-7 cells, U2OS …)", "experiment": "cell-based or functional assay", "remark": "listed apart in the source"}}, "note": "*1 amine or outer side, *2 acyl side, *3 side chain or, on linkers, in order; H or OH if unused. Side-chain parts run from the residue outwards. [ ]: non-standard residue; d: D form. pAMF = para-azidomethylphenylalanine, [N-]=[N+]=NCc1ccc(C[C@H](N[*:1])C(=O)[*:2])cc1"}
{"binder": "B1", "values": [{"measurement": "fold lower affinity than aldesleukin", "setting": "[1]", "result": 6, "unit": "fold"}, {"measurement": "fold lower affinity than aldesleukin", "setting": "[2]", "result": 6, "unit": "fold"}, {"measurement": "Kit225-STAT5 reporter, fold lower activity than aldesleukin", "setting": "[3]", "result": 5110, "unit": "fold"}, {"measurement": "CD25 knockout Kit225-STAT5 reporter, fold lower activity than aldesleukin", "setting": "[4]", "result": 24, "unit": "fold"}, {"measurement": "Kit225-STAT5 EC50", "setting": "[5]", "result": 0.45, "unit": "nM"}, {"measurement": "Kit225-STAT5 EC50 Fold-change", "setting": "[5]", "result": 437, "unit": "fold"}, {"measurement": "NK-92 EC50 Fold-change", "setting": "[5]", "result": 117, "unit": "fold"}, {"measurement": "NK-92 proliferation EC50", "setting": "[5]", "result": 0.68, "unit": "nM"}, {"measurement": "DERL-7 EC50 Fold-change", "setting": "[6]", "result": 17, "unit": "fold"}, {"measurement": "DERL-7 proliferation EC50", "setting": "[6]", "result": 0.73, "unit": "nM"}, {"measurement": "pSTAT5 Treg Fold-change from wt, donor #1", "setting": "[7]", "result": 3620, "unit": "fold"}, {"measurement": "pSTAT5 Treg Fold-change from wt, donor #2", "setting": "[7]", "result": 2230, "unit": "fold"}, {"measurement": "pSTAT5 Treg cells EC50, donor #1", "setting": "[7]", "result": 11.8, "unit": "nM"}, {"measurement": "pSTAT5 Treg cells EC50, donor #2", "setting": "[7]", "result": 7.29, "unit": "nM"}, {"measurement": "pSTAT5 CTLs EC50, donor #1", "setting": "[8]", "result": 71.9, "unit": "nM"}, {"measurement": "pSTAT5 CTLs EC50, donor #2", "setting": "[8]", "result": 43, "unit": "nM"}, {"measurement": "pSTAT5 CTLs Fold-change from wt, donor #1", "setting": "[8]", "result": 25, "unit": "fold"}, {"measurement": "pSTAT5 CTLs Fold-change from wt, donor #2", "setting": "[8]", "result": 45, "unit": "fold"}]}
